The source of these data is paper PMC2173332.

Like-named read-outs stand apart in the source and are kept apart here.

Assay [1] addresses acyl-CoA oxidase isoform Aox1p (Yarrowia lipolytica). Briefly: co-IP.
For assay [2] the target is unchanged. Briefly: co-IP. The source holds these as a separate data set.

In the case of acyl-CoA oxidase isoform Aox2p (enzyme), the stoichiometry N in assay [1] and in assay [2] was 1 each time.

As for acyl-CoA oxidase isoform Aox5p (enzyme), the stoichiometry N in assay [1] and in assay [2] was 1 each time.

With acyl-CoA oxidase isoform Aox4p (enzyme), the stoichiometry N in assay [1] and in assay [2] was 1 in each case.

As for acyl-CoA oxidase isoform Aox3p (enzyme), the stoichiometry N in assay [1] and in assay [2] was 1 throughout.

For orientation: stoichiometry N means the number of molecules, sites or subunits per partner or assembly.
